T1: soluble human erythropoietin receptor protein (huEpoR) (human) (UniProt P19235)
T1 sequence (looked up): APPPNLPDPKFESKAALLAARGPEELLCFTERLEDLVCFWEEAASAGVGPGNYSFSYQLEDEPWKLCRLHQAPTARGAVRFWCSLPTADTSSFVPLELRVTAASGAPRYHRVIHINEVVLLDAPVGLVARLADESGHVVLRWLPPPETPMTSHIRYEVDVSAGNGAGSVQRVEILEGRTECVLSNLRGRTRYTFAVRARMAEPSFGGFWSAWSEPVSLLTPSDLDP

T2: human erythropoietin receptor (huEpoR), cell surface expressed (human) (UniProt P19235)
T2 sequence (looked up): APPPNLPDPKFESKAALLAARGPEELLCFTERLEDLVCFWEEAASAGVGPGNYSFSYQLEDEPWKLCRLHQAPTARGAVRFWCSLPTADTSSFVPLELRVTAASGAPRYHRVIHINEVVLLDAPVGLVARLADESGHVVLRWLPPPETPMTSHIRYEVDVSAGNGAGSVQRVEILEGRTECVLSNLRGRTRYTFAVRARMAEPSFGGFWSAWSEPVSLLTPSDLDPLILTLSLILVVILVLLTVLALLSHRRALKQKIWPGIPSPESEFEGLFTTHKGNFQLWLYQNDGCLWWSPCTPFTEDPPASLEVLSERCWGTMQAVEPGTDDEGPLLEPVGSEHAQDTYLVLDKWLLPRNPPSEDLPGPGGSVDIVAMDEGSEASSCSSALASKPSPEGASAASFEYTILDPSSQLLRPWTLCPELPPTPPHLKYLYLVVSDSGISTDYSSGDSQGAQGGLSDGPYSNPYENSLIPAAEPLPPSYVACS

B1: clone 295 scFv-Fc protein (Fc fusion, part only; not given: scFv linker and IgG1 Fc, not shown: a dimerising Fc or GST)
scFv, part: EVQLVESGGGLVQPGGSLRLSCAASGFTFSSYAMSWVRQAPGKGLEWVSGISGSGSSEGGTYYADSVKGRFTLSRDNSKNTLYLQMNSLRAEDTALYYCVKDRPSRYSFGYYFDYWGRGTLVTVSSLPVLTQPPSVSVSPGQTASIACSGNKLGDKYVSWYQQKPGQSPLLVIYQDTKRPSGIPERFSGSNSGNTATLTISGTQAMDEADYYCQAWDSSTDVVFGGGTKLTVL
B2: clone 201 scFv-Fc protein (Fc fusion, part only; not given: scFv linker and IgG1 Fc, not shown: a dimerising Fc or GST)
scFv, part: QVQLQESGSGLARPSQTLSLTCAVSGGSISSSAFSWNWIRQPPGKGLEWIGYIYHTGITDYNPSLKSRVTISVDRSKNQFSLNVNSVTAADTAVYYCARGHGSDPAWFDPWGKGTLVTVSSQSVLTQPPSVSVSPGQTASITCSGDKLGDKYASWYQQRPGQSPVLVIYRDTKRPSGIPERFSGSNSGNTATLTISGTQAVDEADYYCQAWDSTTSLVFGGGTKLTVL
B3: clone 378 scFv-Fc protein (Fc fusion, part only; not given: scFv linker and IgG1 Fc, not shown: a dimerising Fc or GST)
scFv, part: QVQLVESGGGLVQPGRSLILSCAVSGFTFSKYWMTWVRQAPGKGLEWVANIKPDGSEKYYVESVKGRFTISRDNAKNSVYLQMNSVRAEDTAVYYCARVSRGGSFSDWSQGTLVTVSSQSALTQPPSASGSPGQSVTISCTGTSGDVGAYNYVSWYQQYPGKAPKLMIYEVSKRPSGVPDRFSGSKSGNTASLTVSGLQAEDEADYYCNSYRGSNGPWVFGGGTKVTVL
B4: clone 319 scFv-Fc protein (Fc fusion, part only; not given: Linker and IgG1 Fc, not shown: another chain or arm of the molecule; a dimerising Fc or GST; small tags and cut ends)
VH: QVQLVQSGAEIKKPGASVKVSCKTFGSPFSTNDIHWVRQAPGQGLEWMGIIDTSGAMTRYAQKFQGRVTVTRETSTSTVYMELSSLKSEDTAVYYCAREGCTNGVCYDNGFDIWGQGTLVTVSS
VL: DIQMTQSPSTLSASIGDRVTITCRASEGIYHWLAWYQQKPGKAPKLLIYKASSLASGAPSRFSGSGSGTDFTLTISSLQPDDFATYYCQQYSNYPLTFGGGTKLEIK
B5: clone 307 scFv-Fc protein (Fc fusion, part only; not given: scFv linker and IgG1 Fc, not shown: a dimerising Fc or GST)
scFv, part: EVQLVESGGGLVQPGGSLRLSCAVSGFTFSKYWMTWVRQAPGKGLEWVANIKPDGSEKYYVESVKGRFTISRDNAKNSVYLQMNSVRAEDTAVYYCARVSRGGSFSDWGQGTMVTVSSQSVLTQPPSASGSPGQSVTISCTGTSSDVGGYNYVSWYQQHPDKAPRLMIYDVNKRPSGVPDRFSGSKSGNTASLTVSGLQAEDEAHYYCNSYAGSNNWVFGGGTQLTVL
B6: clone 276 scFv-Fc protein (Fc fusion, part only; not given: scFv linker and IgG1 Fc, not shown: a dimerising Fc or GST)
scFv, part: EVQLVQSGGGLVQPGGSLRLSCAASGFTFSSYWMSWVRQAPGKGLEWVANIKPDGSEKYYVDSVKGRFTISRDNAKNSVYLQMNSLRAEDTAVYYCARVSRGGSYSDWGRGTMVTVSSQSVLTQPPSASGSPGQSVTISCTGTSSDVGGFNYVSWYQKYPGKAPKLVIYEVSKRPSGVPDRFSGSKSGNTASLTVSGLQAEDEADYYCSSWAPGKNLFGGGTKLTVL
B7: clone 15 scFv-Fc protein (Fc fusion, part only; not given: scFv linker and IgG1 Fc, not shown: a dimerising Fc or GST)
scFv, part: QVQLQESGPGLVRPSGTLSLTCAVSGGSIGSSNWWSWVRQAPGKGLEWIGEISQSGSTNYNPSLKGRVTISLDRSRNQLSLKLSSVTAADTAVYYCARQLRSIDAFDIWGPGTTVTVSASYVLTQPPSVSVSPGLTATITCSGDKLGDKYASWYQQKPGQSPVLVIYQDRKRPSGIPERFSGSNSGNTATLTISGTQAVDEADYYCQAWDSDTSYVFGTGTQLTVL
B8: clone 318 scFv-Fc protein (Fc fusion, part only; not given: scFv linker and IgG1 Fc, not shown: a dimerising Fc or GST)
scFv, part: QVQLVESGGGLVQPGGSLRLSCAVSGFTFSKYWMTWVRQAPGKGLEWVANIKPDGSEKYYVESVKGRFTISRDNAKNSVYLQMNSVRAEDTAVYYCARVSRGGSFSDWGQGTLVTVSSQSVLTQPPSASGSPGQSVTISCTGTSSDVGGYNYVSWYQQHPGRAPKLIIYEVSKRPSGVPDRFSGSKSGNTASLTVSGLQADDEADYYCNSYAGSIYVFGSGTKVTVL
B9: clone 13 scFv-Fc protein (Fc fusion, part only; not given: scFv linker and IgG1 Fc, not shown: a dimerising Fc or GST)
scFv, part: QVQLQQSGGGVVQPGRSLRLSCAASGFTFSDYAMHWVRQAPGKGLEWVAVISNHGKSTYYADSVKGRFTISRDNSKHMLYLQMNSLRADDTALYYCARDIALAGDYWGQGTLVTVSADIQMTQSPSSLSASVGDRVTITCRASQSISSYLNWYQQLPGKVPKLLIYGASKLQSGVPSRFSGSGSGTDFTLTISSLQPEDFATYYCLQDYNYPLTFGPGTRLEIK
B10: clone 34 scFv-Fc protein (Fc fusion, part only; not given: Linker and IgG1 Fc, not shown: another chain or arm of the molecule; a dimerising Fc or GST; small tags and cut ends)
VH: QVQLQQSGAEVKKPGASVKVSCKASGYTFSGYYMHWVRQAPGQGLEWMGWINPNSGSTNYAQKFLGRVTMTRDTSISTAYMELSSLRSDDTAVYYCARGHSGDYFDYWGQGTLVTVSA
VL: EIVLTQSPSSLSASVGDRVTITCRASQSVSSWLAWYQQRPGQAPKLLIYAARLRGGGPSRFSGSGSGTEFTLTISSLQPEDFATYFCQQSYSTPISFGGGTKLEIK
B11: clone 16 scFv-Fc protein (Fc fusion, part only; not given: scFv linker and IgG1 Fc, not shown: a dimerising Fc or GST)
scFv, part: QVQLQESGPGLVKPSETLSLTCTVSGGYINNYYWSWIRQPPGKGLEWIGYIHYSGSTYYNPSLKSRVTISEDTSKNQFSLKLSSATAADTAVYYCARVGYYYDSSGYNLAWYFDLWGRGTLVTVSASSELTQDPAVSVALGQTVRITCQGDNLRSYSATWYQQKPGQAPVLVLFGENNRPSGIPDRFSGSKSGDTAVLTITGTQTQDEADYYCTSRVNSGNHLGVFGPGTQLTVL
B12: clone 323 scFv-Fc protein (Fc fusion, part only; not given: scFv linker and IgG1 Fc, not shown: a dimerising Fc or GST)
scFv, part: QVQLVESGGGLVQPGGSLRLSCAVSGFTFSKYWMTWVRQAPGKGLEWVANIKPDGSEKYYVESVKGRFTISRDNAKNSVYLQMNSVRAEDTAVYYCARVSRGGSFSDWGRGTMVTVSSQSALTQPASVSGSPGQSITISCTGTSSDVGSYNLVSWYQQHPGKVPKLIIYEVSNRPSGVSHRFSGSKSGNTASLTISGLQAEDEADYYCSSLTSSGTWVFGGGTKVTVL
B13: clone 330 scFv-Fc protein (Fc fusion, part only; not given: scFv linker and IgG1 Fc, not shown: a dimerising Fc or GST)
scFv, part: EVQLVESGGGLVQPGGSLRLSCAVSGFTFSKYWMTWVRQAPGKGLEWVANIKPDGSEKYYVESVKGRFTISRDNAKNSVYLQMNSVRAEDTAVYYCARVSRGGSFSDWGQGTLVTVSSQSALTQPPSASGSPGQSVTISCTGTSSDVGAYNYVSWYQQHPGKAPKLMIYEVARRPSGVPDRFSGSKSGNTASLTVSGLQAEDEADYYCSSYAGSNNFAVFGRGTKLTVL
B14: clone 352 scFv-Fc protein (Fc fusion, part only; not given: scFv linker and IgG1 Fc, not shown: a dimerising Fc or GST)
scFv, part: EVQLVQSGGGLVQPGGSLRLSCAASGFRFSSYWMTWVRQAPGKGLEWVANIKPDGSEKYYVDSVKGRFTMSRDNAKNSVYLQMNSLRAEDTAVYYCARVSRGGSFSDWGQGTLVTVSSQSALTQPASVSGSPGQSITIPCTGTSSDIGTYDYVSWYQQHPGKVPKVIIYEVTNRPSGVSNRFSGSKSGNTASLTISGLQADDEADYYCNSFTKNNTWVFGGGTKLTVL

How the values were obtained:
[1] = molecular target: cynomolgus monkey EpoR (cynoEpoR) (cynomolgus monkey); assay: SPR, Biacore T100; scFv-Fc captured by anti-human IgG Fc on CM5 chip, EpoR as analyte
[2] = molecular target: T1, soluble human erythropoietin receptor protein (huEpoR) (human); assay: as above
[3] = molecular target: T2, human erythropoietin receptor (huEpoR), cell surface expressed (human); assay: cell-based or functional assay
[4] = molecular target: cynomolgus monkey EpoR (cynoEpoR) (cynomolgus monkey); assay: SPR, Biacore T100; scFv-Fc captured on CM5 chip, EpoR as analyte; fit to steady-state model (off-rate too rapid); clone #318, cynomolgus EpoR, steady-state fit
[5] = molecular target: cynomolgus monkey EpoR (cynoEpoR) (cynomolgus monkey); assay: SPR, Biacore T100; scFv-Fc captured on CM5 chip, EpoR as analyte; fit to steady-state model (off-rate too rapid); clone #34, cynomolgus EpoR, steady-state fit

Binder	Kd [1]	koff [1]	kon [1]	Kd [2]	koff [2]	kon [2]	Average EC50, UT-7-luciferase assay [3]	Kd [4]	Kd [5]
B1	539 nM	0.0221 s⁻¹	41000 M⁻¹ s⁻¹	163 nM	0.00296 s⁻¹	18000 M⁻¹ s⁻¹	0.607 nM	–	–
B2	18600 nM	0.0508 s⁻¹	2700 M⁻¹ s⁻¹	4030 nM	0.0187 s⁻¹	4600 M⁻¹ s⁻¹	8.28 nM	–	–
B3	–	–	–	–	–	–	0.055 nM	–	–
B4	121 nM	0.0258 s⁻¹	213000 M⁻¹ s⁻¹	212 nM	0.0335 s⁻¹	158000 M⁻¹ s⁻¹	5.87 nM	–	–
B5	1210 nM	0.361 s⁻¹	299000 M⁻¹ s⁻¹	108 nM	0.246 s⁻¹	2.28e+06 M⁻¹ s⁻¹	0.381 nM	–	–
B6	–	–	–	–	–	–	0.322 nM	–	–
B7	3130 nM	0.115 s⁻¹	37000 M⁻¹ s⁻¹	1950 nM	0.119 s⁻¹	61000 M⁻¹ s⁻¹	2.8 nM	–	–
B8	–	–	–	847 nM	0.558 s⁻¹	659000 M⁻¹ s⁻¹	0.0154 nM	4890 nM	–
B9	920 nM	0.0597 s⁻¹	65000 M⁻¹ s⁻¹	1040 nM	0.0568 s⁻¹	55000 M⁻¹ s⁻¹	4.03 nM	–	–
B10	–	–	–	378 nM	0.203 s⁻¹	536000 M⁻¹ s⁻¹	0.11 nM	–	5810 nM
B11	4360 nM	0.283 s⁻¹	65000 M⁻¹ s⁻¹	2190 nM	0.142 s⁻¹	65000 M⁻¹ s⁻¹	–	–	–
B12	–	–	–	–	–	–	0.613 nM	–	–
B13	890 nM	0.0965 s⁻¹	108000 M⁻¹ s⁻¹	45.4 nM	0.0373 s⁻¹	822000 M⁻¹ s⁻¹	0.0075 nM	–	–
B14	–	–	–	–	–	–	2.16 nM	–	–

From US20080124340A1
